Assay results published in patent EP4553085A1 (Hangzhou Sumgen Biotech Co., Ltd., dated 2025).
Where a chain is given by its changes, count along the chain named.

B1: chimeric antibody 1A2-7 (antibody, V domains shown)
VH: QVQLQQPGAELVKPGASVKLSCKASGYTFTSYWMHWVKQRPGQGLEWIGEINPSNGRTNYNEKFKSKATLTVDKSSSTAYMQLNSLTSEDSAVYYCARDRYDEGNAMDYWGQGTSVTVSS
VL: DIVMTQTTSSLSASLGDRVTISCRASQDITNYLNWYQQKPDGTVKLLIYYTSRLHSGVPSRFSGSGSGTDYSLTISNLEQEDIATYFCQQGDTLPRTFGGGTKLEIK
B2: chimeric antibody 3G9-1 (antibody, V domains shown)
VH: QVQLQQPGAELVKPGASVKLSCKASGYTFTSYWMHWVKQRPGQGLEWIGEINPSNGRTNYNEKFKSKATLIVDKSSSTAYMQLSSLTSEDSAVYYCARGIYYGYDYAMDYWGQGTSVTVSS
VL: B1 VL with V3Q, Q6H, T30S, D92N, R96P
B3: chimeric antibody 3A2-18 (antibody, V domains shown)
VH: B1 VH with Q1E, M81V
VL: B1 VL
B4: chimeric antibody 5E11-2 (antibody, V domains shown)
VH: EVKLEESGGGLVQPGGSMKLSCAASGFTFSDAWMDWVRQSPEKGLEWVAEIRSKPNNHATYYAESVKGRFTISRDDSKSSVYLQMNSLRAEDTGIYYCTRTTDYSMDYWGQGTSVTVSS
VL: DIQMTQSPASLAVSLGQRATISCRASQSVSASSYSYMHWYQQKPGQPPKLLIKYASNLQSGVPARFSGSGSGTDFTLNIHPVEEEDSATYYCQHSWEIPRTFGGGTKLEIK

molecular target: T1, Human LILRB4/CD85k/ILT3 Protein (ECD, His Tag), Sino Biological (human, UniProt Q8NHJ6 22-259); test: ELISA, coated LILRB4 ECD-His
T1 construct: extracellular domain; Bought protein; it is not tied to this bought protein; also called LILRB4 protein; not shown: His tag

| binding result | Binder |
| --- | --- |
| binds | B1 |
| binds | B2 |
| binds | B3 |
| binds | B4 |
